Laboratory results as given in US11925696B2, “Carbonic anhydrase IX targeting agents and methods” (priority 2016, dated 2024).
pIC50: −log10 of the molar value.

Assays:
[1] = tested on: HT-29 cells; assay: Fluorescent microscopy: binding of rhodamine-labeled CA IX conjugates to HT-29 cells; format: cell-based, human; conditions: 1 hour at 37° C.; alone or plus 100-fold excess CA IX inhibitor; confocal microscopy
Description: Fluorescent conjugates were incubated with HT-29 cells in the presence or absence of 100-fold excess unlabeled ligand. After washing, white light and fluorescent microscopy were used to visualize binding.
a. HT-29 cells (10^5) were seeded into chambered coverglass plates and allowed to grow to confluence over 48-72 hr. Spent medium was replaced with 0.5 mL of fresh medium containing 0.5% bovine serum albumin and various concentrations of the dye conjugate (L1-Rhodamine, L2-Rhodamine or L3-Rhodamine) alone or the dye conjugate plus 100-fold excess CA IX inhibitor L1, L2 or L3, where appropriate. After incubation for 1 hour at 37° C., cells were rinsed twice with 1 mL of incubation solution to remove unbound fluorescence and 0.5 ml of fresh incubation medium was added to the wells. Images were acquired using a confocal microscopy (FV 1000, Olympus).

[2] = tested on: HCT-116, HT-29, RCC4 and SK-RC-38 human cancer cell lines; assay: Fluorescent microscopy: binding of L2-Rhodamine to CA IX expressing cell lines; format: cell-based
Description: After washing, white light and fluorescent microscopy were used to visualize binding.
b. HCT-116, HT-29, RCC4 and SK-RC-38 human cancer cell lines (10^5) were seeded into chambered coverglass plates and allowed to grow to confluence over 48-72 hr. […] After incubation for 1 hour at 37° C., cells were rinsed with incubation solution (2×1.0 mL) to remove unbound conjugate then washed with PBS (1×1.0 mL). Images were acquired using confocal microscopy (FV 1000, Olympus). […] Additionally, the punctate appearance in several of the cell lines is indicative of a rapid internalization of the bound conjugate.

[3] = tested on: HT-29 cells; format: cell-based, human
Description: After washing, the cells were incubated for […] and their viability was determined via ^3H-thymidine uptake.
HT-29 cells were seeded on amine-coated 24-well plates and allowed to form monolayers. The spent medium in each well was replaced with fresh medium (0.5 mL) containing various concentrations of Tubulysin B or L2-Tubulysin B in the presence or absence of 100-fold excess CA IX inhibitor L2. After incubating for 2 h at 37° C., cells were rinsed 3 times with fresh medium and then incubated an additional 66 h at 37° C. in fresh medium. Spent medium in each well was again replaced with fresh medium (0.5 mL) containing ^3H-thymidine (1 μCi/ml) and the cells were incubated for an additional 4 h. After washing the cells 3 times with medium, they were dissolved in 0.5 mL of 0.25 M NaOH. Thymidine incorporation was then determined by counting cell-associated radioactivity using a scintillation counter (Packard, Packard Instrument Company). The IC50 value was derived from a plot of the percent of ^3H-thymidine incorporation versus log concentration using Graph Pad Prism 4 and TableCurve 2D software.

[4] = Maximum tolerated dose; format: in vivo, mice; conditions: for Euthanized (mice) / Healthy (mice) / Sick (mice): thrice weekly tail vein, three mice per group
Description: Maximum tolerated dose. Various concentrations of L2-Tubulysin B were administered to male nu/nu mice thrice weekly via tail vein injection. Visibly sick mice were recorded and if necessary euthanized before the end of the experiment. […] Therefore, a dose of 2 μmol/kg was used for further in vivo efficacy studies.

[5] = tested on: HT29 subcutaneous tumors; assay: In vivo xenograft tumor efficacy of L2-Tubulysin B; set-up: species or system mice; conditions: for tumor growth: thrice weekly for 3 weeks
Description: Once tumors reached a volume of ˜100 mm^3, mice were randomized into various treatment groups (n=3 for each IP group). L2-Tubulysin B (2 μmol/kg) was administered intraperitoneally in the presence or absence of 100-fold excess CA IX ligand L2 every other day for 9 doses. Tumor volume and weight were measured every other day. Error bars represent standard error of the mean. FIG. 10A: (●) PBS Control, (▴) L2-Tubulysin B, (□) Competition. FIG. 10B: (●) PBS Control, (▴) L2-Tubulysin B, (□) Competition.
Once tumors reached a volume of ˜100 mm^3, mice were randomized into various treatment groups (n=5 for each IV group). CA IX-Tubulysin B ([…]) was administered via tail vein injection in the presence or absence of 100-fold excess CA IX ligand every other day for 9 doses. Tumor volume and weight were measured every other day. Error bars represent standard error of the mean. FIG. 11A: (●) PBS Control, (▴) L2-Tubulysin B, (□) Competition. FIG. 11B: (●) PBS Control, (▴) L2-Tubulysin B, (□) Competition.
In vivo xenograft tumor efficacy of L2-Tubulysin B. HT29 cells (5.0×10^6) were injected into the shoulders of 5-6 week old female nu/nu mice. Tumors were measured in two perpendicular directions thrice weekly with vernier calipers and their volumes were calculated as 0.5×L×W^2, where L is the longest axis (in millimeters), and W is the axis perpendicular to L (in millimeters). Dosing of L2-Tubulysin B in the presence or absence of 100-fold excess CA IX inhibitor L2 was initiated when the subcutaneous tumors reached ˜100 mm^3 in volume. Dosing solutions were prepared in saline and filtered through a 0.22 μm filter. Solutions were administered via tail vein injection or intraperitoneally. Each mouse received 2 μmol/kg L2-Tubulysin B per injection. Injections were given thrice weekly for 3 weeks and the mice were weighed concurrently.

CN(C)c1ccc2c(-c3ccc(C(=O)NCCCCCNC(=O)CN(CCN(CC(=O)O)CC(=O)Nc4ccc(S(N)(=O)=O)cc4)CC(=O)Nc4ccc(S(N)(=O)=O)cc4)cc3C(=O)O)c3ccc(=[N+](C)C)cc-3oc2c1 [Conjugate L2-Rhodamine]
binding to HT-29 cells and competition by excess unconjugated inhibitor [1]: bound the cells and were competed in the presence of excess unconjugated inhibitor | binding in the presence of competing unconjugated CA IX inhibitor ([2]; competing unconjugated CA IX inhibitor as printed (method: 100-fold excess L2)): essentially no binding was observed | binding to cell lines ([2]; dye conjugate alone, 1 hour at 37° C., confocal microscopy): binding is observed in every cell line tested

CN(C)c1ccc2c(-c3ccc(C(=O)NCCOCCOCCOCCOCCC(=O)Nc4cccc(NC(=O)Nc5ccc(S(N)(=O)=O)cc5)c4)cc3C(=O)O)c3ccc(=[N+](C)C)cc-3oc2c1 [Conjugate L3-Rhodamine]
binding to HT-29 cells and competition by excess unconjugated inhibitor [1]: bound the cells and were competed in the presence of excess unconjugated inhibitor

CCCC(=O)OCN(C(=O)[C@@H](NC(=O)[C@H]1CCCCN1C)[C@@H](C)CC)[C@H](C[C@@H](OC(C)=O)c1nc(C(=O)N[C@@H](Cc2ccc(O)cc2)C[C@H](C)C(=O)NNC(=O)OCCSSC[C@H](NC(=O)[C@H](CC(=O)O)NC(=O)[C@@H](N)CNC(=O)CCOCCOCCOCCOCCOCCOCCOCCOCCOCCOCCOCCOCCNC(=O)CN(CCN(CC(=O)O)CC(=O)Nc2ccc(S(N)(=O)=O)cc2)CC(=O)Nc2ccc(S(N)(=O)=O)cc2)C(=O)O)cs1)C(C)C [L2-Tubulysin B]
pIC50 ([3]; 2 h exposure, additional 66 h in fresh medium, read-out: IC50 (3H-thymidine incorporation)): 8.36 | cytotoxic effect with 100-fold excess of the unconjugated inhibitor ([3]; HT-29 cells): completely abrogated | adverse events ([4]; 1 μmol/kg): no adverse events were identified | Euthanized (mice) ([4]; 1 μmol/kg): 0 | Healthy (mice) ([4]; 1 μmol/kg): 3 | Sick (mice) ([4]; 1 μmol/kg): 0 | Euthanized (mice) ([4]; 3 μmol/kg): 0 | Healthy (mice) ([4]; 3 μmol/kg): 2 | Sick (mice) ([4]; 3 μmol/kg): 1 | Euthanized (mice) ([4]; 5 μmol/kg): 2 | Healthy (mice) ([4]; 5 μmol/kg): 0 | Sick (mice) ([4]; 5 μmol/kg): 1 | signs of toxicity ([4]; highest dose): all mice showed signs of toxicity | tumor growth with 100-fold excess CA IX inhibitor L2 ([5]; 2 μmol/kg): growth of the tumors was similar to the control group | tumor growth ([5]; 2 μmol/kg intraperitoneally): essentially halted tumor growth | tumor growth ([5]; 2 μmol/kg via tail vein injection): essentially halted tumor growth | gross toxicity ([5]; 2 μmol/kg, both routes): no gross toxicity was observed | loss of weight ([5]; 2 μmol/kg, both routes): no loss of weight was observed
